Laboratory results from patent publication US20220364069A1, “METHOD FOR THE PRODUCTION OF AN ENZYMATIC COMPOSITION COMPRISING A RECOMBINANT ENDOPEPTIDASE” (NEMYSIS LIMITED, priority 2019, published 2022).

Columns and labels:
[1] = system: gliadin (QPQLPY sequence); assay: Gluten content of gliadin digests by Elisa-G12; type: biochemical, wheat
Description: Next it has been evaluated whether recombinant E40 enzymatic activity efficiently neutralizes: i) the capacity of gluten proteins to bind G12 antibodies, and ii) the stimulation of a T-cell-mediated immune response, measured by IFN-γ release. To this purpose, gliadin proteins were suspended in 1 ml of 0.1M ammonium acetate and digested with E40 alone, or with E40 co-incubated with the gastrointestinal proteases, pepsin and trypsin/chymotrypsin, at different pHs and time points, as detailed in Table 1.
All enzymes were added in w/w ratio 1:20 (enzyme:protein) and incubated at 37° C., at indicated pH and incubation time. E40/pepsin/chymotrypsin-digested gliadins were deamidated by tTGase (Sigma Aldrich), as previously described^4. Briefly, the enzymatic gliadin digests (500 μg/ml) were incubated with 2 U of guinea pig tTG (T-5398, Sigma, St. Louis, Mo., USA) at 37° C. for 2 hours in PBS with 1 mmol/L CaCl2.
To estimate the effect of E40 digestion on the immunological potential of wheat, gluten content of samples A-L was determined by monoclonal antibodies specific for QPQLPY sequence (Elisa-G12)^10.

gliadin = assay: Digestion of whole gliadin monitored by RP-HPLC; type: biochemical, Triticum aestivum; conditions: pH 4, 37° C., 30 min digestion
Description: The ability of E40 to hydrolyze harmful peptides in whole gliadin proteins was assessed by HPLC analysis (FIG. 6). Gliadin was extracted from whole flour of Triticum aestivum (Sagittario cultivar) according to Mamone et al^4. Gliadin (1 mg) was dissolved in 1 ml of 0.1 M ammonium acetate pH 4 and incubated with E40 enzymes (enzyme:substrate, 1:20), at 37° C. for different time points (0, 15, 30, 60, 120, 240 minutes). The enzymatic hydrolysis was stopped by boiling samples for 5 minutes. Samples were lyophilized and stored at −40° C. until further chemical analysis.
SDS-PAGE was performed on a Tetra-cell Mini-PROTEAN system (Bio-Rad, Milan, Italy). Digested gliadin samples were dissolved in Laemli buffer (0.125 M Tris-HCl pH 6.8, 5% SDS, 20% glycerol, 0.02% bromophenol blue) and loaded onto precast 12% acrylamide gel (Bio-Rad). Electrophoresis was carried out under non-reducing conditions, omitting β-mercaptoethanol in the Laemli buffer. Protein bands were visualized with silver blue (Coomassie Brilliant Blue G-250) and digitalized using a LABScan scanner (Amersham Bioscience/GE Healthcare, Uppsala, Sweden). RP-HPLC was carried out on a RP-HPLC using an HP 1100 Agilent Technology modular system (Palo Alto, Calif., USA). […] Eluent A was 0.1% TFA (v/v) in Milli-Q water, eluent B was 0.1% TFA (v/v) in acetonitrile. […] The column effluent was monitored at 220 and 280 nm with an UV-Vis detector. […]

[2] = system: CD4+ T-cell lines from intestinal biopsies of CD patients; assay: IFN-γ production of gliadin reactive intestinal T-cell lines exposed to gliadin digests; type: cell-based, human; conditions: samples A-H; digests at 50 and 100 μg/ml; 48 hours; assay sensitivity 32 pg/ml
Description: In order to evaluate the capability of gliadin preparations to activate a T-cell response, the different gliadin enzymatic digests (samples A-L in FIGS. 7A and 7B) deamidated by tTG treatment, were assayed on CD4+ T-cell lines previously established from intestinal biopsies of CD patients^11 (Table 3).
Briefly, intestinal mononuclear cells were stimulated with irradiated autologous peripheral blood mononuclear cells (PBMCs) and deamidated pepsin-chymotrypsin digested gliadin extracted from the hexaploid wheat. Growing T cells were kept in culture by repeated stimulation with heterologous irradiated PBMCs and PHA, and IL-2 as a growth factor. […] In the functional assays, the immune response of TCLs to gliadin enzymatic digests (samples A-L, Table 1 and FIGS. 7A and B) was assayed by detecting IFN-γ production. T cells (3×10^4) were co-incubated with irradiated autologous EBV-transformed, B-lymphoblastoid cell lines (B-LCLs, 1×10^5), in 200 μL of complete medium (X-Vivol5 supplemented with 5% human serum and penicillin-streptomycin antibiotics, all reagents supplied by Lonza-BioWhittaker, Verviers, Belgium) in U-bottom 96-well plates. After a 48 hours incubation, cell supernatants (50 μL) were collected for IFN-γ determination. […] IFN-γ was measured by a classic sandwich ELISA using purified and biotin-conjugated anti-IFN-γ Abs purchased from Mabtech (Nacka Strand, Sweden). […]

B1: E40: Actinoallomurus endopeptidase with glutenase activity, sequence comprising SEQ ID NO: 1; recombinant histidine-tagged form SEQ ID NO: 2 from S. lividans (protein)
chain: AAPSGLSPANLQSAYKLPSSTAGSGQTVAIVDAYDAPTAEADLNVYRSQFGLGACTTANGCFKKVDQNGGTSYPRKDGGWAQEISLDLDMVSAVCPNCKIVLVEAKTNSFANLGTAENTAASLANVISNSYGGSDASDASYGSYYNHPGKAITVSSGDAGYGVEYPASSHYVTAVGGTSLRTASTSRGWSETAWSGAGSGCSAYNTALSGQSGLTGCSRRAVADVSAVADPATGVAVYDSTAYQGQSGWMVFGGTSVAAPIIGGVYGLAANAASIDNNYPYAHTSSLFDVTSGSNGTCTTTKWCTAGTGWDGPTGLGTPNGTGAFGHHHHHH
modifications: Actinoallomurus
- gluten content (Elisa-G12) ([1]; sample A: E40 (1 h) (pH 4)): 1.72 ppm (ng/mL)
- gluten content (Elisa-G12) ([1]; sample B: E40 (2 h) (pH 4)): 2.26 ppm (ng/mL)
- gluten content (Elisa-G12) ([1]; sample C: E40 + Pepsin (1 h) (pH 4)): 5.23 ppm (ng/mL)
- gluten content (Elisa-G12) ([1]; sample D: E40 + Pepsin (2 h) (pH 4)): 5.42 ppm (ng/mL)
- gluten content (Elisa-G12) ([1]; sample E: E40 + Pepsin (2 h) (pH 4), Trypsin + Chymotrypsin (2 h) (pH 6)): 4.09 ppm (ng/mL)
- gluten content (Elisa-G12) ([1]; sample F: E40 + Pepsin (2 h) (pH 4), Trypsin + Chymotrypsin (4 h) (pH 6)): 2.68 ppm (ng/mL)
- gluten content (Elisa-G12) ([1]; sample G: E40 + Pepsin (1 h) (pH 4), Trypsin + Chymotrypsin (2 h) (pH 6)): 1.68 ppm (ng/mL)
- gluten content (Elisa-G12) ([1]; sample H: E40 + Pepsin (1 h) (pH 4), Trypsin + Chymotrypsin (4 h) (pH 6)): 2.05 ppm (ng/mL)
- gluten content of E40 digested samples ([1]; samples from A to H): below 20 ppm
- peaks assigned to gliadins after 30 min (gliadin): markedly reduced
- IFN-γ production of T cells exposed to E40-digested gliadins [2]: no detectable IFN-γ production
- pH of maximal activity (purified enzyme preparation, pH range 2 to 8): 5
- residual activity at pH 3 (purified enzyme preparation, relative to pH 5): ~40%
- enzyme activity of purified sample (purified sample of Example 4, pH 5, 37° C.): 41000 U/mg protein
